Data set [1] concerns the target plasma purified human antithrombin III (AT-III), in complex with unfractionated heparin (UFH). Kind of data set: ratio of K0.5 for AT-III/UFH inhibition, variant over Catalyst Biosciences WT FIXa; calculated from the lower-limit K0.5.
Data set [2] addresses T1, Antithrombin III (plasma purified human AT-III, Molecular Innovations). The experiment in a line: same assay; ratio of the lower-limit K0.5 to recombinant wild-type FIXa (Catalyst Biosciences WT).
Data set [3] concerns the target T1, Antithrombin III (plasma purified human …). The experiment in a line: AT-III/UFH inhibition, expanded sensitivity assay (1000 nM-0 nM and 5000-0 nM AT-III); assigned lower limit for less than 10% inhibition.
The target in data set [4] is antithrombin III (plasma purified human AT-III), used as the AT-III/unfractionated heparin complex. Kind of data set: K0.5 ratio to Catalyst Biosciences WT FIXa, AT-III/UFH inhibition assay (from lower-limit K0.5).
The target in data set [5] is plasma purified human antithrombin III (AT-III), in complex with unfractionated heparin. Kind of data set: K0.5 of variant over K0.5 of Catalyst Biosciences WT FIXa; AT-III/UFH inhibition assay.

A value given as a limit tells only on which side of the number the result lay.

What is called KM is the substrate concentration at which the rate is half of its maximum. One may read the kcat as the number of substrate molecules converted per active site and unit of time at saturation. In general, kcat/KM refers to the turnover number divided by the Michaelis constant.

Sequence of Factor X (FX), P00742 (P00742 whole entry, looked up): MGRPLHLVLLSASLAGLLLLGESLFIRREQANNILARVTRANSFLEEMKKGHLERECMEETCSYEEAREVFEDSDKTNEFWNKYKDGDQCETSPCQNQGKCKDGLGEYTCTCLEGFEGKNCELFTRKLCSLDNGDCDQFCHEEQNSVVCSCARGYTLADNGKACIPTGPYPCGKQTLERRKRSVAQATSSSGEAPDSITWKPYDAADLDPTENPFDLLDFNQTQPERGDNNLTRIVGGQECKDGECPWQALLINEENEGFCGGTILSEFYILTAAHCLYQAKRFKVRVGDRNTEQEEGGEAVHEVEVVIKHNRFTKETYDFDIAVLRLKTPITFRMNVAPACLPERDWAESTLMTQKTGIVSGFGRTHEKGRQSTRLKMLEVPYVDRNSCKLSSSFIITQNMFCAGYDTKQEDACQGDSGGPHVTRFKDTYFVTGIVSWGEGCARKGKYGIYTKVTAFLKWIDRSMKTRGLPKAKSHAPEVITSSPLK
Sequence of Factor X, P00742 (P00742 whole entry, looked up): as above

B1: FIXa-R318Y/R338E/T343R/R403E/E410N (protein)
chain 1: YNSGKLEEFVQGNLERECMEEKCSFEEAREVFENTERTTEFWKQYVDGDQCESNPCLNGGSCKDDINSYECWCPFGFEGKNCELDVTCNIKNGRCEQFCKNSADNKVVCSCTEGYRLAENQKSCEPAVPFPCGRVSVSQTSKLTR
chain 2: VVGGEDAKPGQFPWQVVLNGKVDAFCGGSIVNEKWIVTAAHCVETGVKITVVAGEHNIEETEHTEQKRNVIRIIPHHNYNAAINKYNHDIALLELDEPLVLNSYVTPICIADKEYTNIFLKFGSGYVSGWGRVFHKGYSALVLQYLRVPLVDRATCLESTKFRIYNNMFCAGFHEGGRDSCQGDSGGPHVTEVEGTSFLTGIISWGEECAMKGKYGIYTKVSEYVNWIKNKTKLT
Turning to B1, in the data set with Factor X (FX), P00742, the KM was found to be 0.0223 µM; the “catalytic activity (kcat/KM) for activation of FX” value is “displayed some of the greatest increases in catalytic activity”; the kcat of FX activation by FIXa (Xase complex with FVIIIa, PC/PS vesicles, Ca2+) is 9.7 s⁻¹. Besides, in the data set with Factor X, P00742, the “% of WT kcat/KM” value came to 1217%, the kcat stood at 11.8 s⁻¹ and the kcat/KM is 5.4e+08 M⁻¹ s⁻¹. For the same protein, the K0.5-mut/K0.5-wt in data set [1] was above 517 fold.

B2: FIXa-R318Y/R338E/R403E (protein)
chain 1: YNSGKLEEFVQGNLERECMEEKCSFEEAREVFENTERTTEFWKQYVDGDQCESNPCLNGGSCKDDINSYECWCPFGFEGKNCELDVTCNIKNGRCEQFCKNSADNKVVCSCTEGYRLAENQKSCEPAVPFPCGRVSVSQTSKLTR
chain 2: VVGGEDAKPGQFPWQVVLNGKVDAFCGGSIVNEKWIVTAAHCVETGVKITVVAGEHNIEETEHTEQKRNVIRIIPHHNYNAAINKYNHDIALLELDEPLVLNSYVTPICIADKEYTNIFLKFGSGYVSGWGRVFHKGYSALVLQYLRVPLVDRATCLESTKFTIYNNMFCAGFHEGGRDSCQGDSGGPHVTEVEGTSFLTGIISWGEECAMKGKYGIYTKVSEYVNWIKEKTKLT
For the protein B2, the KM with Factor X, P00742 is 0.0537 µM. The K0.5-mut/K0.5-wt in data set [2] is above 517; in data set [4], above 517 fold. Besides, the K0.5 in data set [3] was above 10 µM.

B3: FIXa D203N/F205T/R318Y/E410N (protein)
chain 1: YNSGKLEEFVQGNLERECMEEKCSFEEAREVFENTERTTEFWKQYVDGDQCESNPCLNGGSCKDDINSYECWCPFGFEGKNCELDVTCNIKNGRCEQFCKNSADNKVVCSCTEGYRLAENQKSCEPAVPFPCGRVSVSQTSKLTR
chain 2: VVGGEDAKPGQFPWQVVLNGKVNATCGGSIVNEKWIVTAAHCVETGVKITVVAGEHNIEETEHTEQKRNVIRIIPHHNYNAAINKYNHDIALLELDEPLVLNSYVTPICIADKEYTNIFLKFGSGYVSGWGRVFHKGYSALVLQYLRVPLVDRATCLRSTKFTIYNNMFCAGFHEGGRDSCQGDSGGPHVTEVEGTSFLTGIISWGEECAMKGKYGIYTKVSRYVNWIKNKTKLT
In data set [5], B3 came in with a K0.5-mut/K0.5-wt of 66.2. Besides, the KM with Factor X (FX), P00742 is 0.0457 µM.

Source of the values: US20210238260.
